B1: MAC-RBM41-WT [human] / DEAH-box RNA helicase DHX8 [human (endogenous in Flp-In T-REx 293)] (parent)
chain 1: MKRVNSCVKSDEHVLEELETEGERQLKSLLQHQLDTSVSIEECMSKKESFAPGTMYKPFGKEAAGTMTLSQFQTLHEKDQETASLRELGLNETEILIWKSHVSGEKKTKLRATPEAIQNRLQDIEERISERQRILCLPQRFAKSKQLTRREMEIEKSLFQGADRHSFLKALYYQDEPQKKNKGDPMNNLESFYQEMIMKKRLEEFQLMRGEPFASHSLVSATSVGDSGTAESPSLLQDKGKQAAQGKGPSLHVANVIDFSPEQCWTGPKKLTQPIEFVPEDEIQRNRLSEEEIRKIPMFSSYNPGEPNKVLYLKNLSPRVTERDLVSLFARFQEKKGPPIQFRMMTGRMRGQAFITFPNKEIAWQALHLVNGYKLHGKILVIEFGKNKKQRSNLQATSLISCATGSTTEISGS
chain 2: MAVAVAMAGALIGSEPGPAEELAKLEYLSLVSKVCTELDNHLGINDKDLAEFVISLAEKNTTFDTFKASLVKNGAEFTDSLISNLLRLIQTMRPPAKPSTSKDPVVKPKTEKEKLKELFPVLCQPDNPSVRTMLDEDDVKVAVDVLKELEALMPSAAGQEKQRDAEHRDRTKKKKRSRSRDRNRDRDRDRERNRDRDHKRRHRSRSRSRSRTRERNKVKSRYRSRSRSQSPPKDRKDRDKYGERNLDRWRDKHVDRPPPEEPTIGDIYNGKVTSIMQFGCFVQLEGLRKRWEGLVHISELRREGRVANVADVVSKGQRVKVKVLSFTGTKTSLSMKDVDQETGEDLNPNRRRNLVGETNEETSMRNPDRPTHLSLVSAPEVEDDSLERKRLTRISDPEKWEIKQMIAANVLSKEEFPDFDEETGILPKVDDEEDEDLEIELVEEEPPFLRGHTKQSMDMSPIKIVKNPDGSLSQAAMMQSALAKERRELKQAQREAEMDSIPMGLNKHWVDPLPDAEGRQIAANMRGIGMMPNDIPEWKKHAFGGNKASYGKKTQMSILEQRESLPIYKLKEQLVQAVHDNQILIVIGETGSGKTTQITQYLAEAGYTSRGKIGCTQPRRVAAMSVAKRVSEEFGCCLGQEVGYTIRFEDCTSPETVIKYMTDGMLLRECLIDPDLTQYAIIMLDEAHERTIHTDVLFGLLKKTVQKRQDMKLIVTSATLDAVKFSQYFYEAPIFTIPGRTYPVEILYTKEPETDYLDASLITVMQIHLTEPPGDILVFLTGQEEIDTACEILYERMKSLGPDVPELIILPVYSALPSEMQTRIFDPAPPGSRKVVIATNIAETSLTIDGIYYVVDPGFVKQKVYNSKTGIDQLVVTPISQAQAKQRAGRAGRTGPGKCYRLYTERAYRDEMLTTNVPEIQRTNLASTVLSLKAMGINDLLSFDFMDAPPMETLITAMEQLYTLGALDDEGLLTRLGRRMAEFPLEPMLCKMLIMSVHLGCSEEMLTIVSMLSVQNVFYRPKDKQALADQKKAKFHQTEGDHLTLLAVYNSWKNNKFSNPWCYENFIQARSLRRAQDIRKQMLGIMDRHKLDVVSCGKSTVRVQKAICSGFFRNAAKKDPQEGYRTLIDQQVVYIHPSSALFNRQPEWVVYHELVLTTKEYMREVTTIDPRWLVEFAPAFFKVSDPTKLSKQKKQQRLEPLYNRYEEPNAWRISRAFRRR

Variants of: B1
Experiment: BioID proximity labeling (mass spectrometry spectral counts)
Settings: with DEAH-box RNA helicase DHX8 [human (endogenous in Flp-In T-REx 293)]; MAC-tagged protein expression induced with tetracycline in the presence of biotin for 24 h; three independent replicates; parent: 23; read off a plot

In order of falling response (spectral count):
1. chain 1 MKRVNSCVKSDEHVLEELETEGERQLKSLLQHQLDTSVSIEECMSKKESFAPGTMYKPFGKEAAGTMTLSQFQTLHEKDQETASLRELGLNETEILIWKSHVSGEKKTKLRATPEAIQNRLQDIEERISERQRILCLPQRFAKSKQLTRREMEIEKSLFQGADRHSFLKALYYQDEPQKKNKGDPMNNLESFYQEMIMKKRLEEFQLMRGEPFASHSLVSATSVGDSGTAESPSLLQDKGKQAAQGKGPSLHVANVIDFSPEQCWTGPKKLTQPIEFVPEDEIQRNRLSEEEIRKIPMFSSYNPGEPNKVLYLKNLSPRVTERDLVSLFARFQEKKGPPIQFRMMTGRMRGAAFITFPNKEIAWQALHLVNGYKLHGKILVIEFGKNKKQRSNLQATSLISCATGSTTEISGS [chain 1 Q352A]  23
2. chain 1 MKRVNSCVKSDEHVLEELETEGERQLKSLLQHQLDTSVSIEECMSKKESFAPGTMYKPFGKEAAGTMTLSQFQTLHEKDQETASLRELGLNETEILIWKSHVSGEKKTKLRATPEAIQNRLQDIEERISERQRILCLPQRFAKSKQLTRREMEIEKSLFQGADRHSFLKALYYQDEPQKKNKGDPMNNLESFYQEMIMKKRLEEFQLMRGEPFASHSLVSATSVGDSGTAESPSLLQDKGKQAAQGKGPSLHVANVIDFSPEQCWTGPKKLTQPIEFVPEDEIQRNRLSEEEIRKIPMFSSYNPGEPNKVLALKNLSPRVTERDLVSLFARFQEKKGPPIQFRMMTGRMRGQAAITFPNKEIAWQALHLVNGYKLHGKILVIEFGKNKKQRSNLQATSLISCATGSTTEISGS [chain 1 Y312A F354A]  23
3. chain 1 MKRVNSCVKSDEHVLEELETEGERQLKSLLQHQLDTSVSIEECMSKKESFAPGTMYKPFGKEAAGTMTLSQFQTLHEKDQETASLRELGLNETEILIWKSHVSGEKKTKLRATPEAIQNRLQDIEERISERQRILCLPQRFAKSKQLTRREMEIEKSLFQGADRHSFLKALYYQDEPQKKNKGDPMNNLESFYQEMIMKKRLEEFQLMRGEPFASHSLVSATSVGDSGTAESPSLLQDKGKQAAQGKGPSLHVANVIDFSPEQCWTGPKKLTQPIEFVPEDEIQRNRLSEEEIRKIPMFSSYNPGEPNKVLYLKNLSPRVTERDLVSLFARFQEKKGPPIQFRMMTGRMRGQAAITFPNKEIAWQALHLVNGYKLHGKILVIEFGKNKKQRSNLQATSLISCATGSTTEISGS [chain 1 F354A]  19
4. chain 1 MKRVNSCVKSDEHVLEELETEGERQLKSLLQHQLDTSVSIEECMSKKESFAPGTMYKPFGKEAAGTMTLSQFQTLHEKDQETASLRELGLNETEILIWKSHVSGEKKTKLRATPEAIQNRLQDIEERISERQRILCLPQRFAKSKQLTRREMEIEKSLFQGADRHSFLKALYYQDEPQKKNKGDPMNNLESFYQEMIMKKRLEEFQLMRGEPFASHSLVSATSVGDSGTAESPSLLQDKGKQAAQGKGPSLHVANVIDFSPEQCWTGPKKLTQPIEFVPEDEIQRNRLSEEEIRKIPMFSSYNPGEPNKVLALKNLSPRVTERDLVSLFARFQEKKGPPIQFRMMTGRMRGQAFITFPNKEIAWQALHLVNGYKLHGKILVIEFGKNKKQRSNLQATSLISCATGSTTEISGS [chain 1 Y312A]  19
